Results as given in paper PMC3859580, “The PS1 Hairpin of Mcm3 Is Essential for Viability and for DNA Unwinding In Vitro”.

Molecular target: Mcm2-7 complex (wild type) (Saccharomyces cerevisiae, UniProt P29469;P24279;P30665;P29496;P53091;P38132 1-868;1-971;1-933;1-775;1-1017;1-845)
Experiment: EMSA; 5 mM ATP, 10 mM Mg acetate; 50-400 nM complex, 1 nM DNA; shifted band diminished by anti-Mcm7; EMSA: 20 mM Tris-HCl pH 7.5, 10 mM Mg acetate, 100 uM EDTA, 5 mM DTT, 5 mM ATP, 37 C, 10 min; 5% native TBE gel with 5% glycerol, 0.1% NP-40, 10 mM Mg acetate
Settings: protein: recombinant; copies: 1;1;1;1;1;1; label: 5'-32P; single strand

B1: 90-base ssDNA oligonucleotide with (T)60 tail (ssDNA)
DNA: ATGTCCTAGCAAGCCAGAATTCGGCAGCGTCTTTTTTTTTTTTTTTTTTTTTTTTTTTTTTTTTTTTTTTTTTTTTTTTTTTTTTTTTTTT
B1: binds.
